Source: patent US20140037641A1

Target: MAb E2-9
Assay: inhibition ELISA: soluble Fba peptide against plate-coated Fba-MAP for MAb E2-9

B1: Fba peptide (…), synthetic 14 mer from Candida albicans fructose-bisphosphate aldolase (peptide)
peptide: YGKDVKDLFDYAQE
  IC50: 10 µg/mL
